Results on one substance are retold here after patent US20240132578A1.

Assay in all cases: cell-based or functional assay
Test [1] concerns the target HIV-1 Env of isolate 97ZA012 (HIV-1).
Test [2] has as its target HIV-1 Env of isolate THR0.18 (HIV-1).
Test [3] addresses HIV-1 Env of isolate TRO.11 (HIV-1).
For test [4], the target named is HIV-1 Env of isolate 93IN905 (HIV-1).
The target of test [5] is HIV-1 MGRM-C-028 Env (HIV-1).
The target in test [6] is HIV-1 Env of isolate MGRM-AE-004 (pseudovirus) (HIV-1).
For test [7], the target named is HIV-1 Env of isolate MGRM-AE-006 (pseudovirus) (HIV-1).
Test [8] has as its target HIV-1 Env of isolate TRJ04551.58 (HIV-1).
For test [9], the target named is HIV-1 Env of isolate 93MW959 (HIV-1).
Test [10] addresses HIV-1 92RW020 Env (HIV-1).
Test [11] deals with HIV-1 Env of isolate MGRM-AE-005 (pseudovirus) (HIV-1).
Test [12] deals with HIV-1 Env of isolate 92TH021 (CRF01_AE) (HIV-1).
Test [13] addresses HIV-1 MGRM-A-010 Env (HIV-1).
Test [14] has as its target HIV-1 Env of isolate 98IN022 (HIV-1).
Test [15] deals with HIV-1 Env of isolate SC422661.8 (HIV-1).
In test [16] the target is HIV-1 Env of isolate PVO.4 (HIV-1).
The target of test [17] is HIV-1 92TH021 envelope (Env) on pseudovirus (HIV-1).
For test [18], the target named is HIV-1 Env of isolate VLGCB3 (HIV-1).
The target of test [19] is HIV-1 Env of isolate MGRM-D-004 (clade D pseudovirus) (HIV-1).
The target in test [20] is HIV-1 Env of isolate MGRM-Chronic-B-024 (HIV-1).

As for 1496_C09 (PG9) (TCN-109) (antibody), the IC50 (µg/mL), pseudovirus neutralization was 3.4 µg/mL in test [1]; 26.4 µg/mL in test [2]; 16.9 µg/mL in [3]; 0.035 µg/mL in test [4]; 0.009 µg/mL in test [6]; 0.063 µg/mL in test [7]. For the same substance, the IC50 (µg/mL), pseudovirus neutralization in test [8] came to 0.858 µg/mL; in test [9] it was 0.054 µg/mL; in test [11] it was 0.282 µg/mL; in test [14], 0.003 µg/mL; in test [15], 1.48 µg/mL; in [16], 24.8 µg/mL. The results for the IC50 (µg/mL), pseudovirus neutralization in [18] and in [20] were 0.022 µg/mL and 0.222 µg/mL, respectively. The IC50, pseudovirus neutralization in test [5] came to 0.121 µg/mL; in test [10] it was 0.161 µg/mL; in test [13], 0.0375 µg/mL; in test [19] it was 0.03 µg/mL. Moreover, in [12], the IC90 (neutralization of pseudovirus) stood at 1.99 µg/mL. The substance also came in with a neutralization IC50 in [17] of 0.111 µg/mL.
